Results reported in the supplement of paper PMC9170038.

System: MS2 coat protein
Test: apparent KD of MS2 coat protein; higher = weaker reporter binding
Conditions: Eterna round: R107
Description: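 RNA-MaP round R107: designed RNA switches with theophylline, tryptophan, arginine or FMN aptamers are transcribed on-chip within common flanks. They are titrated with SNAP-549-labelled MS2 coat protein in RNA-MaP buffer (100 mM Tris pH 7.5, 80 mM KCl, 4 mM MgCl2), without ligand or with the indicated ligand. Median apparent KD per design.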

[1] = input ligand: theophylline 20 uM
[2] = input ligand: tryptophan 2.4 mM
[3] = input ligand: theophylline 2 mM

ACAUGAGGAUCACCCAUGUAAAUCCUCGAUACCAGCCAAAGGAGAGGCCCUUGGCAGCGGAAAGGCCGGGUAUAAAUGUCCGGCC
apparent KD of MS2 coat protein (input ligand: arginine 13.2 mM): 0.0716 µM
apparent KD of MS2 coat protein [1]: 0.151 µM
apparent KD of MS2 coat protein [2]: 0.125 µM

ACAUGAGGAUCACCCAUGUAACAACGGGAAGGAGCGCCAAACAAGGCAGGUAGGUCGCCCACAUGAGGAUCACCCAUGUGUUGGG [Exclusion Arginine A GF 27]
apparent KD of MS2 coat protein (input ligand: arginine 13.2 mM): 0.0307 µM
apparent KD of MS2 coat protein (input ligand: none): 0.03 µM
apparent KD of MS2 coat protein [1]: 0.0407 µM
apparent KD of MS2 coat protein [3]: 0.0391 µM
apparent KD of MS2 coat protein [2]: 0.0288 µM

ACAUGAGGAUCACCCAUGUAAUAAUCAGAAGGAGCGUGGAAUAACACAGGUAGGUCGCUGAUGUUUUGUUAAAAUUAUUCGUGAA [JR_SSArginiA_Sub002]
apparent KD of MS2 coat protein (input ligand: arginine 13.2 mM): 0.0117 µM
apparent KD of MS2 coat protein (input ligand: none): 0.0135 µM
apparent KD of MS2 coat protein [1]: 0.0169 µM
apparent KD of MS2 coat protein [3]: 0.0129 µM
apparent KD of MS2 coat protein [2]: 0.0143 µM

ACAUGAGGAUCACCCAUGUAAUGGCACGAUACCAGCUGAUCCCGUGGCCCUUGGCAGCGUCCGGUGUGGUCCGGCGGGUUGGACG [LLLMULLIN]
apparent KD of MS2 coat protein (input ligand: arginine 13.2 mM): 0.0145 µM
apparent KD of MS2 coat protein (input ligand: none): 0.0145 µM
apparent KD of MS2 coat protein [1]: 0.0226 µM
apparent KD of MS2 coat protein [3]: 0.0345 µM
apparent KD of MS2 coat protein [2]: 0.0174 µM

ACAUGAGGAUCACCCAUGUACAUCACCCGACGAGGACCGGUACGGCCGCCACUCGGGUAUAUAUAUACAUCGGGUGAUUUUACGU [#22 Tryptophan A Same State]
apparent KD of MS2 coat protein (input ligand: arginine 13.2 mM): 0.0274 µM
apparent KD of MS2 coat protein [1]: 0.0574 µM
apparent KD of MS2 coat protein [3]: 0.0641 µM

ACAUGAGGAUCACCCAUGUACAUCACCCGACGAGGACCGGUACGGCCGCCACUCGGGUAUAUAUAUACAUCGGGUGGUUUUGCAU [a15jan]
apparent KD of MS2 coat protein (input ligand: arginine 13.2 mM): 0.0407 µM
apparent KD of MS2 coat protein [1]: 0.0884 µM
apparent KD of MS2 coat protein [3]: 0.04 µM

ACAUGAGGAUCACCCAUGUACAUGAGGGAAGGAGCGGUACAUGUACCAGGUAGGUCGCCCAACAGCAUCAGCCAUGUACAUCAGC [ggvmullin]
apparent KD of MS2 coat protein (input ligand: arginine 13.2 mM): 0.0314 µM
apparent KD of MS2 coat protein (input ligand: none): 0.0761 µM
apparent KD of MS2 coat protein [1]: 0.102 µM
apparent KD of MS2 coat protein [3]: 0.0904 µM
apparent KD of MS2 coat protein [2]: 0.069 µM

ACAUGAGGAUCACCCAUGUAGCGUAGGGAAGGAGCGGAAUAGAGUCCAGGUAGGUCGCCCAUAUGAUGAUCUCACUUAUUAUCGA [#13 Same State - Arginine A]
apparent KD of MS2 coat protein (input ligand: arginine 13.2 mM): 0.0391 µM
apparent KD of MS2 coat protein (input ligand: none): 0.0211 µM
apparent KD of MS2 coat protein [1]: 0.0367 µM
apparent KD of MS2 coat protein [3]: 0.0408 µM
apparent KD of MS2 coat protein [2]: 0.0229 µM

ACAUGAGGAUCACCCAUGUAUGACUAUCCUCGAGGACCGGUACGGCCGCCACUCGAACGAGUGGCUCGCGAGUGCGCACUUGCGA [5' end]
apparent KD of MS2 coat protein (input ligand: arginine 13.2 mM): 0.0167 µM
apparent KD of MS2 coat protein (input ligand: none): 0.0132 µM
apparent KD of MS2 coat protein [1]: 0.0167 µM
apparent KD of MS2 coat protein [3]: 0.0127 µM
apparent KD of MS2 coat protein [2]: 0.0119 µM

ACAUGAGGAUCACCCAUGUAUGAUGUUCCUCGAGGACCGGUACGGCCGCCACUCGAACGAGUGGCGCGCGAGCGCGCGCUCGCGC [aVa]
apparent KD of MS2 coat protein (input ligand: arginine 13.2 mM): 0.014 µM
apparent KD of MS2 coat protein (input ligand: none): 0.0156 µM
apparent KD of MS2 coat protein [1]: 0.0272 µM
apparent KD of MS2 coat protein [3]: 0.0173 µM
apparent KD of MS2 coat protein [2]: 0.0152 µM

ACAUGAGGAUCACCCAUGUAUGAUGUUCCUCGAGGACCGGUACGGCCGCCACUCGAACGAGUGGCGCGCGAGUGCGCACUCGCGC [aWa]
apparent KD of MS2 coat protein (input ligand: arginine 13.2 mM): 0.0211 µM
apparent KD of MS2 coat protein (input ligand: none): 0.0157 µM
apparent KD of MS2 coat protein [1]: 0.0387 µM
apparent KD of MS2 coat protein [3]: 0.0168 µM
apparent KD of MS2 coat protein [2]: 0.0141 µM

ACAUGAGGAUCACCCAUGUAUGGCGCGGAAGGAGCGUGAUUAAGCACAGGUAGGUCGCUGCGUUGAUCGAGCGUUAGCUCGAUAA [SSArg A #9]
apparent KD of MS2 coat protein (input ligand: arginine 13.2 mM): 0.0158 µM
apparent KD of MS2 coat protein (input ligand: none): 0.019 µM
apparent KD of MS2 coat protein [1]: 0.0251 µM
apparent KD of MS2 coat protein [3]: 0.0224 µM
apparent KD of MS2 coat protein [2]: 0.0223 µM

ACAUGAGGAUCACCCAUGUAUUACCGGGAAGGAGCGCGUGAAAACGCAGGUAGGUCGCUCGGCGUCGUGCUGUAAAGCACGACGA [#1 Same State - Arginine A Attempt #25 (HarryS)]
apparent KD of MS2 coat protein (input ligand: arginine 13.2 mM): 0.0133 µM
apparent KD of MS2 coat protein (input ligand: none): 0.0115 µM
apparent KD of MS2 coat protein [1]: 0.0162 µM
apparent KD of MS2 coat protein [3]: 0.0156 µM
apparent KD of MS2 coat protein [2]: 0.0134 µM

ACAUGAGGAUCACCCAUGUAUUCAUCAGAAGGAGCGUGGAAUAACACAGGUAGGUCGCUGAUUAUUUGUUAAAUAAAAUCGUGUA [JR_Nu_SSArginiA_Sub022]
apparent KD of MS2 coat protein (input ligand: arginine 13.2 mM): 0.0125 µM
apparent KD of MS2 coat protein (input ligand: none): 0.0173 µM
apparent KD of MS2 coat protein [1]: 0.0206 µM
apparent KD of MS2 coat protein [3]: 0.0171 µM
apparent KD of MS2 coat protein [2]: 0.0183 µM

ACAUGAGGAUCACCCAUGUCAGGGCACGAUACCAGCUGAUCCGAUGGCCCUUGGCAGCGUGACGUGUGGUCAUGAGGAUCACCCG [kvfmullin]
apparent KD of MS2 coat protein (input ligand: arginine 13.2 mM): 0.139 µM
apparent KD of MS2 coat protein [1]: 0.209 µM
apparent KD of MS2 coat protein [2]: 0.182 µM

ACAUGAGGAUCACCCAUGUCAUGAGGUUCACGAGGACCGGUACGGCCGCCACUCGACAUGAGGGUCACCCGUGAAGGGAACACCC [xdmullin]
apparent KD of MS2 coat protein (input ligand: arginine 13.2 mM): 0.0181 µM
apparent KD of MS2 coat protein (input ligand: none): 0.0227 µM
apparent KD of MS2 coat protein [1]: 0.0298 µM
apparent KD of MS2 coat protein [3]: 0.0429 µM
apparent KD of MS2 coat protein [2]: 0.0179 µM

ACAUGAGGAUCACCCAUGUGAAGCAGGGUACGAGGACCGGUACGGCCGCCACUCGAGCAUUAUAACGAGUGAAUGGCAACGAUGU [whbob_Ex_trypto A_2s16]
apparent KD of MS2 coat protein (input ligand: arginine 13.2 mM): 0.0117 µM
apparent KD of MS2 coat protein (input ligand: none): 0.0124 µM
apparent KD of MS2 coat protein [1]: 0.019 µM
apparent KD of MS2 coat protein [3]: 0.0174 µM
apparent KD of MS2 coat protein [2]: 0.0128 µM

ACAUGAGGAUCACCCAUGUGGAGCAGGGUACGAGGACCGGUACGGCCGCCACUCGAGCGUUAUGACGAGUGAAUGGCAACGAUGU [whbob_X-Trypto_A_V1.0]
apparent KD of MS2 coat protein (input ligand: arginine 13.2 mM): 0.00993 µM
apparent KD of MS2 coat protein (input ligand: none): 0.0105 µM
apparent KD of MS2 coat protein [1]: 0.0159 µM
apparent KD of MS2 coat protein [3]: 0.0125 µM
apparent KD of MS2 coat protein [2]: 0.0121 µM
